According to publication PMC8763006:

Molecular target: glutathione S-transferase Pi 1 (GSTP1) (human (endogenous in 97H and Huh7)), P09211
Assay: native gel or EMSA; total protein of 97H-PCSK9 and 97H-mock cells in nondenaturing, nonreducing buffer without boiling, PAGE gel without SDS; Western blot with anti-GSTP1
Settings: remark: other sources report otherwise

B1: glutathione S-transferase Pi 1 (GSTP1), P09211 1-210 (natural protein)
chain: MPPYTVVYFPVRGRCAALRMLLADQGQSWKEEVVTVETWQEGSLKASCLYGQLPKFQDGDLTLYQSNTILRHLGRTLGLYGKDQQEAALVDMVNDGVEDLRCKYISLIYTNYEAGKDDYVKALPGQLKPFETLLSQNQGGKTFIVGDQISFADYNLLDLLLIHEVLAPGCLDAFPLLSAYVGRLSARPKLKAFLASPEYVNLPINGNGKQ
B1 showed a stoichiometry N of 2.
